Residue numbers refer to the chain shown, from its start. Each block holds one binder with its values, some of them ahead of it.
Legend:
[1] = biological target: T1, full length human OX40L expressed on CHO cells (human, UniProt P23510 1-183); assay: cell-based or functional assay
T1 sequence: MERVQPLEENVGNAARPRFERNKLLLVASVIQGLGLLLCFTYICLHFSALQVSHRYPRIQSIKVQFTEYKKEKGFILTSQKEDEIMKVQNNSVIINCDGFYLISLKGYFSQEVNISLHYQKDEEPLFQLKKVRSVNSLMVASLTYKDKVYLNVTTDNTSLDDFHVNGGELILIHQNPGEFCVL

[2] = biological target: T1, full length human OX40L expressed on …; assay: competition FACS with hOX40/Fc on CHO-hOX40L
Description: The competition FACS assay was performed as described in example 2.

[3] = biological target: T2, recombinant human OX40L (extracellular domain, R&D Systems) (human, UniProt P23510 51-183); assay: SPR, after second injection of buffer HBS-EP+
T2 construct: also called hOX40L; rec. hOX40L
T2 sequence: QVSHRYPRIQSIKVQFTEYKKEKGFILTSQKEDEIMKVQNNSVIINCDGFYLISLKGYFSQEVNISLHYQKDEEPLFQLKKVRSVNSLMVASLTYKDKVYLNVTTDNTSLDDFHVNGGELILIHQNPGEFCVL
Description: (§1) In addition, it was investigated to what extend the 7 anti-OX40L Nanobodies have a different or identical or overlapping epitope. Standard conditions were as described above. […] 1300 RU. A dual injection was performed at 10 μl/min for 2 min, starting with 500 nM of the first Nanobody, followed by 500 nM of the second Nanobody. After 10 min dissociation, regeneration of the surface was performed by injection of 50 mM NaOH for 5-20 sec at 100 μl/min.

[4] = biological target: T1, full length human OX40L expressed on …; assay: FACS binding to CHO cells, anti-c-myc detection
Description: (§2) Transfection of CHO K1 with the respective expression plasmid DNA and selection of clones with high expression levels was performed as described in Example 1. Binding of the Nanobodies to the cell surface expressed OX40L was assessed by FACS analysis of cells as described below.
(§3) After washing bound Nanobodies were detected in FACSArray™ using mouse anti-c-myc and PE conjugated goat anti-mouse IgG.

[5] = biological target: T3, cynomolgus OX40L expressed on CHO cells (cynomolgus monkey, UniProt P23510 1-183 (human entry)); assay: FACS binding to CHO cells, anti-c-myc detection
T3 construct: also called cynoOX40L; CHO-cynoOX40L
T3 chain: T1 sequence with R55Q, K73E
Description: as §2, §3

[6] = biological target: T2, recombinant human OX40L (extracellular …); assay: SPR, second injection after competitor OX40L01B11
Description: as §1

[7] = biological target: T2, recombinant human OX40L (extracellular …); assay: SPR, second injection after competitor OX40L01E07
Description: as §1

[8] = biological target: T2, recombinant human OX40L (extracellular …); assay: SPR, second injection after competitor OX40L01E10
Description: as §1

[9] = biological target: T2, recombinant human OX40L (extracellular …); assay: SPR, second injection after competitor OX40L15B07
Description: as §1

[10] = biological target: T2, recombinant human OX40L (extracellular …); assay: SPR, second injection after competitor OX40L18E09
Description: as §1

[11] = biological target: T2, recombinant human OX40L (extracellular …); assay: SPR, second injection after competitor OX40L19A07
Description: as §1

[12] = biological target: T2, recombinant human OX40L (extracellular …); assay: SPR, second injection after competitor OX40L19D08
Description: as §1

[13] = biological target: T4, biotinylated hOX40L (R&D Systems, biotinylated in house) (human, UniProt P23510 51-183, biotinylated with Sulfo-NHS-LC-Biotin, sites not stated); assay: AlphaScreen, 31 pM biotinylated hOX40L + 80 pM OX40/Fc
T4 construct: same bought protein as m10, biotinylated; also called biotinylated OX40L
T4 sequence: T2 sequence
Description: (§4) Next, streptavidin donor beads were added and incubated for an additional 1 hour. Fluorescence was measured by reading plates on the EnVision Multilabel Plate Reader using an excitation wavelength of 680 nm and an emission wavelength of 520 nm.

[14] = biological target: T4, biotinylated hOX40L (R&D Systems, …); assay: AlphaScreen, 120 pM biotinylated hOX40L + 0.2 nM hOX40/Fc
Description: as §4

[15] = biological target: T1, full length human OX40L expressed on …; assay: competition FACS, 3.1 nM hOX40/Fc on hOX40L expressing cells
[16] = biological target: T4, biotinylated hOX40L (R&D Systems, …); assay: hOX40L/hOX40 AlphaScreen, sample heated 1 min at Tm+10 C
Description: as §4
In the TSA assay, Nanobodies were diluted to a concentration of 0.2 mg/ml and melting temperature (Tm) was determined at different pH by stepwise increase in temperature in presence of Sypro Orange, a dye that binds to […] residues that become exposed upon unfolding of the protein, using the Lightcycler (Roche) for detection. […] In SEC analysis, the Nanobodies were analyzed on a Phenomenex matrix to allow detection of multimers, aggregates or ‘stickyness’.

IC50, IL4 production, T-cell activation assay, donor 1 [1]: 236 nM
IC50, IL4 production, T-cell activation assay, donor 2 [1]: 249 nM
IC50, IL4 production, T-cell activation assay, donor 3 [1]: 73 nM
IC50 [2]: 2 nM
Binding Level sample 2 (RU) [3]: 155 RU
Binding Level sample 2 - sample 1 (RU) [3]: -40 RU
EC50 [4]: 2.43 nM
EC50 [5]: 3.23 nM
Binding Level sample 2 (RU) [6]: 324 RU
Binding Level sample 2 - sample 1 (RU) [6]: -9 RU
Binding Level sample 2 (RU) [7]: 198 RU
Binding Level sample 2 - sample 1 (RU) [7]: 12 RU
Binding Level sample 2 (RU) [8]: 237 RU
Binding Level sample 2 - sample 1 (RU) [8]: 17 RU
Binding Level sample 2 (RU) [9]: 198 RU
Binding Level sample 2 - sample 1 (RU) [9]: 5 RU
Binding Level sample 2 (RU) [10]: 189 RU
Binding Level sample 2 - sample 1 (RU) [10]: 2 RU
Binding Level sample 2 (RU) [11]: 200 RU
Binding Level sample 2 - sample 1 (RU) [11]: 26 RU
Binding Level sample 2 (RU) [12]: 217 RU
Binding Level sample 2 - sample 1 (RU) [12]: -7 RU
IC50 [13]: 0.125 nM
IC50 [14]: 0.3 nM
IC50 [15]: 1.61 nM
B1: OX40L15B07 (VHH)
VHH: EVQLVESGGGLVQAGGSLRLSCAASRSIGRLDRMGWYRHRTGEPRELVATITGGSSINYGDFVKGRFTISIDNAKNTVYLQMNNLKPEDTAVYYCNFNKYVTSRDTWGQGTQVTVSS
notes: monovalent Nanobody from E. coli; not shown: C-terminal c-myc and His6 tag

IC50, IL4 production, T-cell activation assay, donor 1 [1]: 230 nM
IC50, IL4 production, T-cell activation assay, donor 2 [1]: 188 nM
IC50, IL4 production, T-cell activation assay, donor 3 [1]: 80 nM
IC50, IL4 production, T-cell activation assay, donor 4 [1]: 220 nM
IC50 [2]: 5 nM
Binding Level sample 2 (RU) [3]: 383 RU
Binding Level sample 2 - sample 1 (RU) [3]: -57 RU
EC50 [4]: 2.94 nM
EC50 [5]: 3.39 nM
Binding Level sample 2 (RU) [6]: 380 RU
Binding Level sample 2 - sample 1 (RU) [6]: 7 RU
Binding Level sample 2 (RU) [7]: 399 RU
Binding Level sample 2 - sample 1 (RU) [7]: 205 RU
Binding Level sample 2 (RU) [8]: 296 RU
Binding Level sample 2 - sample 1 (RU) [8]: 76 RU
Binding Level sample 2 (RU) [9]: 259 RU
Binding Level sample 2 - sample 1 (RU) [9]: 61 RU
Binding Level sample 2 (RU) [10]: 238 RU
Binding Level sample 2 - sample 1 (RU) [10]: 48 RU
Binding Level sample 2 (RU) [11]: 358 RU
Binding Level sample 2 - sample 1 (RU) [11]: 180 RU
Binding Level sample 2 (RU) [12]: 433 RU
Binding Level sample 2 - sample 1 (RU) [12]: 205 RU
IC50 [13]: 0.278 nM
IC50 [16]: 0.6 nM
IC50 [14]: 0.375 nM
IC50 [15]: 5.61 nM
B2: OX40L01B11 (VHH)
VHH: EVQLVESGGGLVQAGGSLRLSCVASGRSFSTYIMGWFRQAPGKEREFVATISRSGITTRSADSVKGRFTISRDNAKNTVYLQMNSLKPEDTAVYYCAAGPYVEQTLGLYQTLGPWDYWGQGTQVTVSS
notes: as for B1

IC50, IL4 production, T-cell activation assay, donor 1 [1]: 260 nM
IC50, IL4 production, T-cell activation assay, donor 2 [1]: 320 nM
IC50, IL4 production, T-cell activation assay, donor 3 [1]: 125 nM
IC50, IL4 production, T-cell activation assay, donor 4 [1]: 169 nM
IC50 [2]: 11 nM
Binding Level sample 2 (RU) [3]: 212 RU
Binding Level sample 2 - sample 1 (RU) [3]: -9 RU
EC50 [4]: 4.03 nM
EC50 [5]: 4.9 nM
Binding Level sample 2 (RU) [6]: 486 RU
Binding Level sample 2 - sample 1 (RU) [6]: 194 RU
Binding Level sample 2 (RU) [7]: 192 RU
Binding Level sample 2 - sample 1 (RU) [7]: 11 RU
Binding Level sample 2 (RU) [8]: 289 RU
Binding Level sample 2 - sample 1 (RU) [8]: 62 RU
Binding Level sample 2 (RU) [9]: 252 RU
Binding Level sample 2 - sample 1 (RU) [9]: 55 RU
Binding Level sample 2 (RU) [10]: 238 RU
Binding Level sample 2 - sample 1 (RU) [10]: 45 RU
Binding Level sample 2 (RU) [11]: 240 RU
Binding Level sample 2 - sample 1 (RU) [11]: 63 RU
Binding Level sample 2 (RU) [12]: 252 RU
Binding Level sample 2 - sample 1 (RU) [12]: 23 RU
IC50 [13]: 0.229 nM
IC50 [16]: 0.1 nM
IC50 [14]: 0.423 nM
IC50 [15]: 8.89 nM
B3: OX40L01E07 (VHH)
VHH: EVQLVESGGGLVQAGGSLRLSCAASGRTFSSIYAKGWFRQAPGKEREFVAAISRSGRSTSYADSVKGRFTISRDNAKNTVYLQMNSLKPEDTAVYYCAAVGGATTVTASEWDYWGLGTQVTVSS
notes: as for B1
